# From paper PMC6081378
# Target: rHA1_(1-326), recombinant hemagglutinin HA1 fragment (residues 1-326) of influenza A virus H1N1 strain A/California/04/2009 (influenza A virus subtype H1N1 strain A/California/04/2009)
# Assay: SEC
substance,measurement,value
"rHA1_(1-326), recombinant hemagglutinin HA1 fragment (residues 1-326) of influenza A virus H1N1 strain A/California/04/2009 (domain or fragment)",percent of the protein as dimers and trimers,70.5%
